Laboratory results: ChEMBL document CHEMBL6127040, “Discovery and optimization of isoliquiritigenin as a death-associated protein kinase 1 inhibitor” (Eur J Med Chem, 2024)

Assays:
Details in all cases: Homo sapiens; time 1.0 hrs
[1] = substrate: O=C(/C=C/c1ccc(O)cc1)c1ccc(O)cc1O
[2] = substrate: COc1cc(/C=C/C(=O)c2ccc(O)cc2O)ccc1O
[3] = substrate: O=C(/C=C/c1ccc(O)c(O)c1)c1ccc(O)cc1O
[4] = substrate: C=CCc1cc(/C=C/C(=O)c2ccc(O)cc2O)ccc1O
[5] = substrate: Cc1cc(O)ccc1/C=C/C(=O)c1ccc(O)cc1O
[6] = substrate: CCCc1cc(/C=C/C(=O)c2ccc(O)cc2O)ccc1O
[7] = substrate: O=C(/C=C/c1ccc(O)cc1)c1ccc(O)cc1O; remark: listed apart in the source
Description: (§1) Binding affinity to DAPK1 (unknown origin) assessed as catalytic rate incubated for 1 hr in presence of ATP by malachite green assay (Rvb = 3.0 +/- 0.15 /min)

[8] = substrate: COc1cc(/C=C/C(=O)c2ccc(O)cc2O)ccc1O; remark: listed apart in the source
Description: as §1

[9] = substrate: O=C(/C=C/c1ccc(O)c(O)c1)c1ccc(O)cc1O; remark: listed apart in the source
Description: as §1

[10] = substrate: C=CCc1cc(/C=C/C(=O)c2ccc(O)cc2O)ccc1O; remark: listed apart in the source
Description: as §1

[11] = substrate: Cc1cc(O)ccc1/C=C/C(=O)c1ccc(O)cc1O; remark: listed apart in the source
Description: as §1

[12] = substrate: CCCc1cc(/C=C/C(=O)c2ccc(O)cc2O)ccc1O; remark: listed apart in the source
Description: as §1

[13] = substrate: O=C(/C=C/c1ccc(O)cc1)c1ccc(O)cc1O; remark: listed apart in the source
[14] = substrate: COc1cc(/C=C/C(=O)c2ccc(O)cc2O)ccc1O; remark: listed apart in the source
[15] = substrate: O=C(/C=C/c1ccc(O)c(O)c1)c1ccc(O)cc1O; remark: listed apart in the source
[16] = substrate: C=CCc1cc(/C=C/C(=O)c2ccc(O)cc2O)ccc1O; remark: listed apart in the source
[17] = substrate: Cc1cc(O)ccc1/C=C/C(=O)c1ccc(O)cc1O; remark: listed apart in the source
[18] = substrate: CCCc1cc(/C=C/C(=O)c2ccc(O)cc2O)ccc1O; remark: listed apart in the source

B1: Death-associated protein kinase 1 (Homo sapiens), P53355 (protein)
chain: MTVFRQENVDDYYDTGEELGSGQFAVVKKCREKSTGLQYAAKFIKKRRTKSSRRGVSREDIEREVSILKEIQHPNVITLHEVYENKTDVILILELVAGGELFDFLAEKESLTEEEATEFLKQILNGVYYLHSLQIAHFDLKPENIMLLDRNVPKPRIKIIDFGLAHKIDFGNEFKNIFGTPEFVAPEIVNYEPLGLEADMWSIGVITYILLSGASPFLGDTKQETLANVSAVNYEFEDEYFSNTSALAKDFIRRLLVKDPKKRMTIQDSLQHPWIKPKDTQQALSRKASAVNMEKFKKFAARKKWKQSVRLISLCQRLSRSFLSRSNMSVARSDDTLDEEDSFVMKAIIHAINDDNVPGLQHLLGSLSNYDVNQPNKHGTPPLLIAAGCGNIQILQLLIKRGSRIDVQDKGGSNAVYWAARHGHVDTLKFLSENKCPLDVKDKSGEMALHVAARYGHADVAQLLCSFGSNPNIQDKEEETPLHCAAWHGYYSVAKALCEAGCNVNIKNREGETPLLTASARGYHDIVECLAEHGADLNACDKDGHIALHLAVRRCQMEVIKTLLSQGCFVDYQDRHGNTPLHVACKDGNMPIVVALCEANCNLDISNKYGRTPLHLAANNGILDVVRYLCLMGASVEALTTDGKTAEDLARSEQHEHVAGLLARLRKDTHRGLFIQQLRPTQNLQPRIKLKLFGHSGSGKTTLVESLKCGLLRSFFRRRRPRLSSTNSSRFPPSPLASKPTVSVSINNLYPGCENVSVRSRSMMFEPGLTKGMLEVFVAPTHHPHCSADDQSTKAIDIQNAYLNGVGDFSVWEFSGNPVYFCCYDYFAANDPTSIHVVVFSLEEPYEIQLNQVIFWLSFLKSLVPVEEPIAFGGKLKNPLQVVLVATHADIMNVPRPAGGEFGYDKDTSLLKEIRNRFGNDLHISNKLFVLDAGASGSKDMKVLRNHLQEIRSQIVSVCPPMTHLCEKIISTLPSWRKLNGPNQLMSLQQFVYDVQDQLNPLASEEDLRRIAQQLHSTGEINIMQSETVQDVLLLDPRWLCTNVLGKLLSVETPRALHHYRGRYTVEDIQRLVPDSDVEELLQILDAMDICARDLSSGTMVDVPALIKTDNLHRSWADEEDEVMVYGGVRIVPVEHLTPFPCGIFHKVQVNLCRWIHQQSTEGDADIRLWVNGCKLANRGAELLVLLVNHGQGIEVQVRGLETEKIKCCLLLDSVCSTIENVMATTLPGLLTVKHYLSPQQLREHHEPVMIYQPRDFFRAQTLKETSLTNTMGGYKESFSSIMCFGCHDVYSQASLGMDIHASDLNLLTRRKLSRLLDPPDPLGKDWCLLAMNLGLPDLVAKYNTSNGAPKDFLPSPLHALLREWTTYPESTVGTLMSKLRELGRRDAADFLLKASSVFKINLDGNGQEAYASSCNSGTSYNSISSVVSR
kcat/Km [1]: 600 M⁻¹ s⁻¹ | kcat/Km [2]: 417 M⁻¹ s⁻¹ | kcat/Km [3]: 417 M⁻¹ s⁻¹ | kcat/Km [4]: 1130 M⁻¹ s⁻¹ | kcat/Km [5]: 650 M⁻¹ s⁻¹ | kcat/Km [6]: 583 M⁻¹ s⁻¹ | kcat [7]: 0.0483 s⁻¹ | kcat [8]: 0.0383 s⁻¹ | kcat [9]: 0.0367 s⁻¹ | kcat [10]: 0.025 s⁻¹ | kcat [11]: 0.0383 s⁻¹ | kcat [12]: 0.035 s⁻¹ | Km [13]: 43 µM | Km [14]: 59 µM | Km [15]: 60 µM | Km [16]: 21 µM | Km [17]: 48 µM | Km [18]: 28 µM
